Assays:
[1] = target: T1, ephrin B1 (mouse (endogenous in primary osteoclasts))
T1 sequence (P52795 whole entry, looked up): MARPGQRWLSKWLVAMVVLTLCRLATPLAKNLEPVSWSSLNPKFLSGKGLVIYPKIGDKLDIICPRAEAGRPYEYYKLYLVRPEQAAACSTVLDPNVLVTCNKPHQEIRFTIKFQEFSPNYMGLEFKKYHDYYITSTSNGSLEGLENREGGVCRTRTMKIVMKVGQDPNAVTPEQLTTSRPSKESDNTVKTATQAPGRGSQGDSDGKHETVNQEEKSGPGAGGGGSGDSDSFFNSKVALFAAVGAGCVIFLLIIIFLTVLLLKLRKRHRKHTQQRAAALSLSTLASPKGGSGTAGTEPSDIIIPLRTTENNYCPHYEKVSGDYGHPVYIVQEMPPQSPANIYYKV

[2] = target: T1, ephrin B1 (mouse (endogenous in primary osteoclasts)); remark: listed apart in the source

- inhibition of the area of bone resorption pits formed by WT osteoclast precursors on bone slices by EphB2-Fc against control Fc; no significant effect on ephrin B1 deficient cells [1]: 54%
- suppression of multinucleated cell (MNC) formation from WT splenocyte precursors by EphB2-Fc (2 µg/ml) against control Fc; little effect on ephrin B1 deficient cells [1]: 49.8%
- inhibition of NFATc1 mRNA (real-time RT-PCR) in WT osteoclasts treated with EphB2-Fc against control Fc; not in ephrin B1 deficient cells [2]: 67%
- inhibition of cathepsin K mRNA (real-time RT-PCR) in WT osteoclasts treated with EphB2-Fc against control Fc; not in ephrin B1 deficient cells [2]: 60%
- reduction of TRAP mRNA (real-time RT-PCR) in differentiated WT osteoclasts treated with soluble EphB2-Fc for 4 days against control Fc [2]: 62%
B1: clustered soluble recombinant EphB2-Fc (Fc fusion)
chain: VEETLMDSTTATAELGWMVHPPSGWEEVSGYDENMNTIRTYQVCNVFESSQNNWLRTKFIRRRGAHRIHVEMKFSVRDCSSIPSVPGSCKETFNLYYYEADFDLATKTFPNWMENPWVKVDTIAADESFSQVDLGGRVMKINTEVRSFGPVSRNGFYLAFQDYGGCMSLIAVRVFYRKCPRIIQNGAIFQETLSGAESTSLVAARGSCIANAEEVDVPIKLYCNGDGEWLVPIGRCMCKAGFEAVENGTVCRGCPSGTFKANQGDEACTHCPINSRTTSEGATNCVCRNGYYRADLDPLDMPCTTIPSAPQAVISSVNETSLMLEWTPPRDSGGREDLVYNIICKSCGSGRGACTRCGDNVQYAPRQLGLTEPRIYISDLLAHTQYTFEIQAVNGVTDQSPFSPQFASVNITTNQAAPSAVSIMHQVSRTVDSITLSWSQPDQPNGVILDYELQYYEKELSEYNATAIKSPTNTVTVQGLKAGAIYVFQVRARTVAGYGRYSGKMYFQTMTEAEYQTSIKEKLPL
